Data as given in patent publication US20230029453A1 (Janssen / Centocor, published 2023).

B1: P35 9-mer NSKMALNSL (TMPRSS2-ERG fusion) (peptide)
peptide: NSKMALNSL
notes: Synthetic 9-mer
B2: P16 9-mer STRRAVRRM (MSMB-NCOA4 fusion) (peptide)
peptide: STRRAVRRM
notes: Synthetic 9-mer
B3: P77 9-mer FFKRAAEGF (AR-V3) (peptide)
peptide: FFKRAAEGF
notes: Synthetic 9-mer
B4: P27 9-mer FPVGAEGTF (FAM126B-ORC2 fusion) (peptide)
peptide: FPVGAEGTF
notes: Synthetic 9-mer
B5: P37 9-mer GVLRRLLCR (TSTD1-F11R fusion) (peptide)
peptide: GVLRRLLCR
notes: Synthetic 9-mer
B6: P59 9-mer NMVENGCYL (FOXA1 F254V) (peptide)
peptide: NMVENGCYL
notes: Synthetic 9-mer
B7: P50 9-mer IQYSCMGLM (AR W742C) (peptide)
peptide: IQYSCMGLM
notes: Synthetic 9-mer
B8: Peptide 7, 9-mer HREKQLIAM derived from P22 (SEQ ID NO: 1003) (peptide)
peptide: HREKQLIAM
B9: Peptide 2, 9-mer IAMDSAITL derived from FUS1 (SEQ ID NO: 1001) (peptide)
peptide: IAMDSAITL
B10: Peptide 10, 9-mer LIAMDSAIT derived from P22 (SEQ ID NO: 1003) (peptide)
peptide: LIAMDSAIT
B11: Peptide 6, 9-mer YHREKQLIA derived from P22 (SEQ ID NO: 1003) (peptide)
peptide: YHREKQLIA
B12: Peptide 3, 9-mer SLIAMDSAI derived from FUS1 (SEQ ID NO: 1001) (peptide)
peptide: SLIAMDSAI
B13: Peptide 4, 9-mer SLYHREKQL derived from P22 (SEQ ID NO: 1003) (peptide)
peptide: SLYHREKQL
B14: Peptide 1, 9-mer AMDSAITLW derived from FUS1 (SEQ ID NO: 1001) (peptide)
peptide: AMDSAITLW
B15: Peptide 9, 9-mer KQLIAMDSA derived from P22 (SEQ ID NO: 1003) (peptide)
peptide: KQLIAMDSA
B16: Peptide 5, 9-mer LYHREKQLI derived from P22 (SEQ ID NO: 1003) (peptide)
peptide: LYHREKQLI

The binders below were run against T1, HLA-A*01:01 (human, biotinylated heavy chain) (assay: UV peptide exchange; HLA class I ELISA).
T1 construct: Conditional HLA class I complex (heavy chain + B2M) first held by a UV-labile peptide; the tested peptide is exchanged in after UV cleavage
Procedure: (§1) The HLA class I ELISA is an enzyme immunoassay based on the detection of beta2-microglobulin (B2M) of (peptide-stabilized) HLA class I complexes. To this end streptavidin was bound onto polystyrene microtiter wells. […] Subsequently, horseradish peroxidase (HRP)-conjugated antibody to human B2M was added. […] In the latter case B2M was removed during the washing step. After removal of non-bound HRP conjugate by washing, a substrate solution was added to the wells. A coloured product formed in proportion to the amount of intact HLA complex present in the samples. After the reaction was terminated by the addition of a stop solution, absorbance was measured in a microtiter plate reader.
(§2) Higher percentages correspond to stronger binding to the HLA allele.

Binder	exchange rate with Pos [%]
B1	2.5
B2	5.5
B3	1.9
B4	4.8
B5	1.4
B6	2.2
B7	2.3

These binders were tested against T2, HLA-A*02:01 (human, biotinylated heavy chain) (assay: UV peptide exchange; HLA class I ELISA;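 for Average %: conditional HLA class I complexes UV-irradiated with peptide, captured on streptavidin wells, intact complex read as HRP anti-B2M absorbance, higher means more binding, control irradiated without rescue peptide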;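 for Exch I (%): conditional HLA class I complexes UV-irradiated with peptide, captured on streptavidin wells, intact complex read as HRP anti-B2M absorbance, higher means more binding, control irradiated without rescue peptide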;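 for Exch II (%): conditional HLA class I complexes UV-irradiated with peptide, captured on streptavidin wells, intact complex read as HRP anti-B2M absorbance, higher means more binding, control irradiated without rescue peptide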).
T2 construct: Conditional HLA class I complex as for m1
Procedure: as §1, §2

Binder	exchange rate with Pos [%]
B1	12.5
B2	10.4
B4	10
B5	12.5
B6	11.9
B7	8.8

These binders were tested against T3, HLA-A*03:01 (human, biotinylated heavy chain) (assay: UV peptide exchange; HLA class I ELISA).
T3 construct: Conditional HLA class I complex as for m1
Procedure: as §1, §2

Binder	exchange rate with Pos [%]
B1	4.2
B2	6.1
B3	2.8
B4	4.5
B5	6.4
B6	4.5
B7	5.5

These binders were tested against T4, HLA-A*24:02 (human, biotinylated heavy chain) (assay: UV peptide exchange; HLA class I ELISA).
T4 construct: Conditional HLA class I complex as for m1
Procedure: as §1, §2

Binder	exchange rate with Pos [%]
B1	0.2
B2	0.8
B3	1.7
B4	0.7
B5	-0.1
B6	-0.5
B7	0.1

What follows are binders tested against T5, HLA-B*07:02 (human, biotinylated heavy chain) (assay: UV peptide exchange; HLA class I ELISA;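 for Average %: ELISA detecting beta2-microglobulin of intact HLA class I complexes captured on streptavidin wells after UV-induced exchange, absorbance read-out, reference is UV-irradiated conditional complex lacking rescue peptide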;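 for Exch I (%): ELISA detecting beta2-microglobulin of intact HLA class I complexes captured on streptavidin wells after UV-induced exchange, absorbance read-out, reference is UV-irradiated conditional complex lacking rescue peptide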;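 for Exch II (%): ELISA detecting beta2-microglobulin of intact HLA class I complexes captured on streptavidin wells after UV-induced exchange, absorbance read-out, reference is UV-irradiated conditional complex lacking rescue peptide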).
T5 construct: Conditional HLA class I complex as for m1
Procedure: as §1, §2

Binder	exchange rate with Pos [%]
B1	12.1
B2	13.7
B3	14.2
B4	7.8
B6	7.5
B7	10.4

Each binder was assayed against T6, HLA-B*08:01 (human, biotinylated heavy chain) (assay: UV peptide exchange; HLA class I ELISA).
T6 construct: Conditional HLA class I complex as for m1
Procedure: as §1, §2

Binder	exchange rate with Pos [%]
B1	13.7
B2	6.2
B3	3.4
B4	6.4
B5	3.3
B6	5.5
B7	4.7

Target: T1, HLA-A*01:01
Assay: UV peptide exchange; HLA class I ELISA
Remark: another data set of the same source
Procedure: (§3) The UV control represented UV-irradiation of conditional HLA class I complex in the absence of a rescue peptide.
as §1

Binder	Average % [%]	Exch I (%)	Exch II (%)
B8	5.4	5.5	5.2
B9	6.9	6.7	7
B10	5.8	6.2	5.4
B11	5.8	6.2	5.5
B12	6.9	6.9	6.9
B13	6.6	6.7	6.4
B14	4.6	4.7	4.6
B15	6.3	6.3	6.3
B16	6	6.2	5.8

Target: T2, HLA-A*02:01
Assay: UV peptide exchange; HLA class I ELISA
Remark: another data set of the same source
Procedure: as §3, §1

Binder	Average % [%]	Exch I (%)	Exch II (%)
B8	8.2	7.9	8.6
B9	85.8	81.1	90.5
B10	6.9	6.7	7.1
B11	17.2	16.3	18.1
B12	58.5	57.3	59.7
B13	87	82.8	91.2
B14	8.6	8	9.2
B15	7.2	6.9	7.6
B16	11.8	11.3	12.3

Target: T4, HLA-A*24:02
Assay: UV peptide exchange; HLA class I ELISA
Remark: another data set of the same source
Procedure: as §3, §1

Binder	Average % [%]	Exch I (%)	Exch II (%)
B8	5.5	5.4	5.6
B9	7	6.7	7.3
B10	4.8	4.6	5.1
B11	6.5	6.6	6.3
B12	5.5	5.3	5.7
B13	6.6	6.5	6.6
B14	5.5	5.1	6
B15	5	4.6	5.3
B16	17.8	17.5	18.1

Target: T5, HLA-B*07:02
Assay: UV peptide exchange; HLA class I ELISA
Remark: another data set of the same source
Procedure: as §3, §1

Binder	Average % [%]	Exch I (%)	Exch II (%)
B8	12.6	12.6	12.6
B9	67.1	68.7	65.4
B10	9.5	9.8	9.2
B11	10.8	11.1	10.5
B12	11.1	10.9	11.3
B13	10.8	10.9	10.8
B14	9.7	10	9.4
B15	10.3	10.5	10.1
B16	10.8	11.5	10

Target: T6, HLA-B*08:01
Assay: UV peptide exchange; HLA class I ELISA
Remark: another data set of the same source
Procedure: as §3, §1

Binder	Average % [%]	Exch I (%)	Exch II (%)
B8	9.5	9.5	9.5
B9	7.9	7.6	8.1
B10	7.3	6.9	7.7
B11	8.3	8.3	8.4
B12	7.3	7.5	7.1
B13	20.7	20.3	21.1
B14	7	6.6	7.3
B15	7.7	7.1	8.3
B16	7.7	7.5	7.9

These binders were tested against T7, HLA-B*27:05 (human, biotinylated heavy chain) (assay: UV peptide exchange; HLA class I ELISA).
T7 construct: Conditional HLA class I complex as for m1
Procedure: as §1

Binder	Average % [%]	Exch I (%)	Exch II (%)
B8	30.9	32.3	29.5
B9	9.3	10.1	8.5
B10	7.3	8.5	6.1
B11	13.1	14.4	11.7
B12	6.3	7.1	5.5
B13	16.5	19	14
B14	9.8	10.3	9.3
B15	10.8	11.8	9.8
B16	17.4	19.3	15.4
